Key:
Test in all cases: cell-based or functional assay
[1] = biological target: HIV-1 IAVI-C3 envelope glycoprotein (Env) on pseudovirus (HIV-1)
[2] = biological target: HIV-1 ADA Env (pseudovirus) (HIV-1 ADA)
[3] = biological target: HIV-1 SF162 envelope protein (Env) on pseudotyped virus (HIV-1 isolate SF162) (UniProt P19550)
[4] = biological target: HIV-1 Env of isolate 92RW009 (HIV-1)
[5] = biological target: HIV-1 Env of isolate 92RW020 (HIV-1)
[6] = biological target: HIV-1 Env of isolate MGRM-C-026 (subtype C), on pseudovirus (HIV-1)
[7] = biological target: HIV-1 Env of isolate MGRM-F1-018 (clade F), on pseudovirus (HIV-1)
[8] = biological target: HIV-1 envelope glycoprotein (Env) of isolate 93TH305, on pseudovirus (HIV-1)
[9] = biological target: HIV-1 envelope glycoprotein (Env) of isolate APV_17, on pseudovirus (HIV-1)
[10] = biological target: HIV-1 envelope glycoprotein (Env) of isolate MGRM-Chronic-B-004, on pseudovirus (HIV-1)
[11] = biological target: HIV-1 envelope glycoprotein (Env) of isolate MGRM-Chronic-B-008, on pseudovirus (HIV-1)
[12] = biological target: HIV-1 envelope glycoprotein (Env) of isolate MGRM-Chronic-B-010, on pseudovirus (HIV-1)
[13] = biological target: HIV-1 envelope glycoprotein (Env) of isolate MGRM-Chronic-B-018, on pseudovirus (HIV-1)
[14] = biological target: HIV-1 92RW020 Env (pseudovirus) (HIV-1)
[15] = biological target: HIV-1 APV6 Env (pseudovirus) (HIV-1)
[16] = biological target: HIV-1 92BR020 envelope glycoprotein (Env) (HIV-1)
[17] = biological target: HIV-1 APV17 envelope glycoprotein (Env) (HIV-1)
[18] = biological target: HIV-1 Env of isolate 92BR020 (HIV-1)
[19] = biological target: HIV-1 JR-CSF Env F317A (HIV-1 isolate JR-CSF) (UniProt P20871)
[20] = biological target: HIV-1 JR-CSF Env K343A (HIV-1 isolate JR-CSF) (UniProt P20871)
[21] = biological target: HIV-1 JR-CSF Env L416A (HIV-1 (isolate JR-CSF)) (UniProt P20871)
[22] = biological target: HIV-1 JR-CSF Env N276A (HIV-1 JR-CSF) (UniProt P20871)
[23] = biological target: HIV-1 JR-CSF Env N301A (HIV-1 JR-CSF) (UniProt P20871)
[24] = biological target: HIV-1 JR-CSF Env N302A (HIV-1 JR-CSF) (UniProt P20871)
[25] = biological target: HIV-1 JR-CSF Env N332A (HIV-1 isolate JR-CSF) (UniProt P20871)
[26] = biological target: HIV-1 JR-CSF Env N355A (HIV-1 isolate JR-CSF) (UniProt P20871)
[27] = biological target: HIV-1 JR-CSF Env N411A (HIV-1 (isolate JR-CSF)) (UniProt P20871)
[28] = biological target: HIV-1 JR-CSF Env Q422A (HIV-1 (isolate JR-CSF)) (UniProt P20871)
[29] = biological target: HIV-1 JR-CSF Env R315A (HIV-1 isolate JR-CSF) (UniProt P20871)
[30] = biological target: HIV-1 JR-CSF Env R327A (HIV-1 isolate JR-CSF) (UniProt P20871)
[31] = biological target: HIV-1 JR-CSF Env R350A (HIV-1 isolate JR-CSF) (UniProt P20871)
[32] = biological target: HIV-1 JR-CSF Env R419A (HIV-1 (isolate JR-CSF)) (UniProt P20871)
[33] = biological target: HIV-1 JR-CSF Env S393A (HIV-1 (isolate JR-CSF)) (UniProt P20871)
[34] = biological target: HIV-1 JR-CSF Env T319A (HIV-1 isolate JR-CSF) (UniProt P20871)
[35] = biological target: HIV-1 JR-CSF Env T341A (HIV-1 isolate JR-CSF) (UniProt P20871)
[36] = biological target: HIV-1 JR-CSF Env T388A (HIV-1 (isolate JR-CSF)) (UniProt P20871)
[37] = biological target: HIV-1 JR-CSF Env T394A (HIV-1 (isolate JR-CSF)) (UniProt P20871)
[38] = biological target: HIV-1 JR-CSF Env V292A (HIV-1 JR-CSF) (UniProt P20871)
[39] = biological target: HIV-1 JR-CSF Env W395A (HIV-1 (isolate JR-CSF)) (UniProt P20871)
[40] = biological target: HIV-1 JRFL envelope glycoprotein (Env) (HIV-1)
[41] = biological target: HIV-1 Env of isolate MGRM-F1-008 (HIV-1)

2G12 (antibody)
IC90 (pseudovirus neutralization) [1]: > 50 µg/mL

1443_C16 (PG16) (TCN-116) (antibody)
IC50 (ug/ml), neutralization [2]: 0.004 µg/mL | IC90 (pseudovirus neutralization) [1]: > 50 µg/mL | IC50, pseudovirus neutralization, 1 hour Virus/Ab Incubation [3]: > 50 µg/mL | IC50, pseudovirus neutralization, 18 hour Virus/Ab Incubation [3]: > 50 µg/mL

1495_C14 (PGC14) (antibody)
IC50, pseudovirus neutralization, 1 hour Virus/Ab Incubation [3]: 0.0069 µg/mL | IC50, pseudovirus neutralization, 18 hour Virus/Ab Incubation [3]: < 0.0025 µg/mL

1496_C09 (PG9) (TCN-109) (antibody)
IC50 (ug/ml), neutralization [2]: 0.2 µg/mL | IC50 [4]: 0.05 µg/mL | IC50 [5]: 0.141 µg/mL | IC50 (µg/mL), pseudovirus neutralization [6]: 0.06 µg/mL | IC50 (µg/mL), single-round pseudovirus neutralization [7]: 0.019 µg/mL | IC50, pseudovirus neutralization [8]: 8.12 µg/mL | IC50, pseudovirus neutralization [9]: 34.8 µg/mL | IC50, pseudovirus neutralization [10]: 0.533 µg/mL | IC50, pseudovirus neutralization [11]: 8.78 µg/mL | IC50, pseudovirus neutralization [12]: 0.004 µg/mL | IC50, pseudovirus neutralization [13]: 0.216 µg/mL

4838_L06 (PGT-121) (antibody)
neutralization IC80 [14]: 0.0188 µg/mL | neutralization IC90 [14]: 0.0361 µg/mL | neutralization IC95 [14]: 0.0671 µg/mL | neutralization IC80 [15]: 0.145 µg/mL | neutralization IC95 [15]: 0.569 µg/mL

5141_B17 (PGT-126) (antibody)
IC50 [14]: 0.0046 µg/mL | IC80 [14]: 0.0168 µg/mL | IC90 [14]: 0.0359 µg/mL | IC95 [14]: 0.0728 µg/mL | IC50 [15]: 0.0249 µg/mL | IC80 [15]: 0.0681 µg/mL | IC90 [15]: 0.123 µg/mL | IC95 [15]: 0.213 µg/mL

PGT-121 (antibody)
IC50 neutralization [16]: 0.0177 µg/mL | IC50 neutralization [17]: 0.095 µg/mL | Primary Neutralization Index (B cell culture well 4838 L06) [18]: 4.9 | Primary Neutralization Index (B cell culture well 4873 E03) [18]: 3.6 | Fold IC50 increase relative to wild-type [19]: 1.7 fold | Fold IC50 increase relative to wild-type [20]: 0.6 fold | Fold IC50 increase relative to wild-type [21]: 0.6 fold | Fold IC50 increase relative to wild-type [22]: 0.8 fold | Fold IC50 increase relative to wild-type [23]: 0.4 fold | Fold IC50 increase relative to wild-type [24]: 0.7 fold | Fold IC50 increase relative to wild-type [25]: > 200 fold | Fold IC50 increase relative to wild-type [26]: 1.4 fold | Fold IC50 increase relative to wild-type [27]: 0.4 fold | Fold IC50 increase relative to wild-type [28]: 1.2 fold | Fold IC50 increase relative to wild-type [29]: 0.9 fold | Fold IC50 increase relative to wild-type [30]: 2.5 fold | Fold IC50 increase relative to wild-type [31]: 0.8 fold | Fold IC50 increase relative to wild-type [32]: 1.8 fold | Fold IC50 increase relative to wild-type [33]: 0.6 fold | Fold IC50 increase relative to wild-type [34]: 1.3 fold | Fold IC50 increase relative to wild-type [35]: 0.5 fold | Fold IC50 increase relative to wild-type [36]: 0.9 fold | Fold IC50 increase relative to wild-type [37]: 0.2 fold | Fold IC50 increase relative to wild-type [38]: 2.7 fold | Fold IC50 increase relative to wild-type [39]: 0.5 fold | IC50 neutralization [40]: 0.0276 µg/mL

PGT-122 (antibody)
IC50 neutralization [16]: 0.0337 µg/mL | IC50 neutralization [17]: 0.522 µg/mL | Fold IC50 increase relative to wild-type [19]: 3.4 fold | Fold IC50 increase relative to wild-type [20]: 0.3 fold | Fold IC50 increase relative to wild-type [21]: 1 fold | Fold IC50 increase relative to wild-type [22]: 1.4 fold | Fold IC50 increase relative to wild-type [23]: 0.4 fold | Fold IC50 increase relative to wild-type [24]: 1.1 fold | Fold IC50 increase relative to wild-type [25]: > 200 fold | Fold IC50 increase relative to wild-type [26]: 0.8 fold | Fold IC50 increase relative to wild-type [27]: 0.7 fold | Fold IC50 increase relative to wild-type [28]: 1.1 fold | Fold IC50 increase relative to wild-type [29]: 0.5 fold | Fold IC50 increase relative to wild-type [30]: 1.7 fold | Fold IC50 increase relative to wild-type [31]: 0.6 fold | Fold IC50 increase relative to wild-type [32]: 0.8 fold | Fold IC50 increase relative to wild-type [33]: 0.5 fold | Fold IC50 increase relative to wild-type [34]: 0.5 fold | Fold IC50 increase relative to wild-type [35]: 0.3 fold | Fold IC50 increase relative to wild-type [36]: 0.3 fold | Fold IC50 increase relative to wild-type [37]: 0.6 fold | Fold IC50 increase relative to wild-type [38]: 1.3 fold | Fold IC50 increase relative to wild-type [39]: 0.4 fold | IC50 neutralization [40]: 0.0471 µg/mL

PGV04 (antibody)
IC50 [4]: 0.108 µg/mL | IC50 [5]: 0.055 µg/mL | IC50 (µg/mL), pseudovirus neutralization [6]: 0.303 µg/mL | IC50 (µg/mL), pseudovirus neutralization [41]: 1.03 µg/mL | IC50 (µg/mL), single-round pseudovirus neutralization [7]: 0.027 µg/mL | IC50, pseudovirus neutralization [8]: 0.255 µg/mL | IC50, pseudovirus neutralization [9]: 0.309 µg/mL | IC50, pseudovirus neutralization [10]: 0.047 µg/mL | IC50, pseudovirus neutralization [11]: 0.166 µg/mL | IC50, pseudovirus neutralization [12]: 0.744 µg/mL | IC50, pseudovirus neutralization [13]: 0.164 µg/mL

VRC01 (antibody)
IC50 [18]: 0.29 µg/mL | IC50, pseudovirus neutralization [41]: 1.11 µg/mL
